Data taken from patent US20130164281A1 (SAMSUNG ELECTRONICS, published 2013).
Where a chain is given by its changes, count along the chain named.

B1: chimeric antibody chAbF46 (antibody, V domains shown)
VH: EVKLVESGGGLVQPGGSLRLSCATSGFTFTDYYMSWVRQPPGKALEWLGFIRNKANGYTTEYSASVKGRFTISRDNSQSILYLQMDTLRAEDSATYYCARDNWFAYWGQGTLVTVSA
VL: DILMTQSPSSLTVSAGEKVTMSCKSSQSLLASGNQNNYLAWHQQKPGRSPKMLIIWASTRVSGVPDRFIGSGSGTDFTLTINSVQAEDLAVYYCQQSYSAPLTFGAGTKLELKR
B2: deimmunized humanized antibody huAbF46 including a combination of AT-VH3 and AT-Vk2 (antibody, IgG1, V domains shown)
VH: B1 VH with K3Q, A44G, Q78K, I80T, D86N, T87S, S93T, A117S
VL: DILMTQSPSSLSASVGDRVTITCKSSQSLLASGNQNNYLAWHQQKPGKAPKMLIIWASTRVSGVPDRFIGSGSGTDFTLTISSLQAEDVAVYYCQQSYSAPLTFGQGTKLEIK
notes: expressed from pANTVhG1 and pANTVk vectors (IgG1, kappa) in HEK293 cells; also called AT-VH3/AT-Vk2
B3: deimmunized humanized antibody huAbF46 including a combination of AT-VH1 and AT-Vk1 (antibody, IgG1, V domains shown)
VH: B1 VH with A44G, Q78K, I80T, D86N, T87S, A117S
VL: B2 VL with S12T, I21M
notes: expressed from pANTVhG1 and pANTVk vectors (IgG1, kappa) in HEK293 cells; also called AT-VH1/AT-Vk1
B4: deimmunized humanized antibody huAbF46 including a combination of AT-VH1 and AT-Vk2 (antibody, IgG1, V domains shown)
VH: B1 VH with A44G, Q78K, I80T, D86N, T87S, A117S
VL: B2 VL
notes: expressed from pANTVhG1 and pANTVk vectors (IgG1, kappa) in HEK293 cells; also called AT-VH1/AT-Vk2
B5: deimmunized humanized antibody huAbF46 including a combination of AT-VH1 and AT-Vk3 (antibody, IgG1, V domains shown)
VH: B1 VH with A44G, Q78K, I80T, D86N, T87S, A117S
VL: B2 VL with L3Q
notes: expressed from pANTVhG1 and pANTVk vectors (IgG1, kappa) in HEK293 cells; also called AT-VH1/AT-Vk3
B6: deimmunized humanized antibody huAbF46 including a combination of AT-VH1 and AT-Vk4 (antibody, IgG1, V domains shown)
VH: B1 VH with A44G, Q78K, I80T, D86N, T87S, A117S
VL: B2 VL with L3Q, I69S
notes: expressed from pANTVhG1 and pANTVk vectors (IgG1, kappa) in HEK293 cells; also called AT-VH1/AT-Vk4
B7: deimmunized humanized antibody huAbF46 including a combination of AT-VH2 and AT-Vk1 (antibody, IgG1, V domains shown)
VH: B1 VH with A44G, Q78K, I80T, D86N, T87S, S93T, A117S
VL: B2 VL with S12T, I21M
notes: expressed from pANTVhG1 and pANTVk vectors (IgG1, kappa) in HEK293 cells; also called AT-VH2/AT-Vk1
B8: deimmunized humanized antibody huAbF46 including a combination of AT-VH2 and AT-Vk3 (antibody, IgG1, V domains shown)
VH: B1 VH with A44G, Q78K, I80T, D86N, T87S, S93T, A117S
VL: B2 VL with L3Q
notes: expressed from pANTVhG1 and pANTVk vectors (IgG1, kappa) in HEK293 cells; also called AT-VH2/AT-Vk3
B9: deimmunized humanized antibody huAbF46 including a combination of AT-VH2 and AT-Vk4 (antibody, IgG1, V domains shown)
VH: B1 VH with A44G, Q78K, I80T, D86N, T87S, S93T, A117S
VL: B2 VL with L3Q, I69S
notes: expressed from pANTVhG1 and pANTVk vectors (IgG1, kappa) in HEK293 cells; also called AT-VH2/AT-Vk4
B10: deimmunized humanized antibody huAbF46 including a combination of AT-VH3 and AT-Vk1 (antibody, IgG1, V domains shown)
VH: B1 VH with K3Q, A44G, Q78K, I80T, D86N, T87S, S93T, A117S
VL: B2 VL with S12T, I21M
notes: expressed from pANTVhG1 and pANTVk vectors (IgG1, kappa) in HEK293 cells; also called AT-VH3/AT-Vk1
B11: deimmunized humanized antibody huAbF46 including a combination of AT-VH3 and AT-Vk3 (antibody, IgG1, V domains shown)
VH: B1 VH with K3Q, A44G, Q78K, I80T, D86N, T87S, S93T, A117S
VL: B2 VL with L3Q
notes: expressed from pANTVhG1 and pANTVk vectors (IgG1, kappa) in HEK293 cells; also called AT-VH3/AT-Vk3
B12: deimmunized humanized antibody huAbF46 including a combination of AT-VH3 and AT-Vk4 (antibody, IgG1, V domains shown)
VH: B1 VH with K3Q, A44G, Q78K, I80T, D86N, T87S, S93T, A117S
VL: B2 VL with L3Q, I69S
notes: expressed from pANTVhG1 and pANTVk vectors (IgG1, kappa) in HEK293 cells; also called AT-VH3/AT-Vk4
B13: deimmunized humanized antibody huAbF46 including a combination of AT-VH4 and AT-Vk1 (antibody, IgG1, V domains shown)
VH: B1 VH with K3Q, A44G, Q78K, S79N, I80T, D86N, T87S, S93T, A117S
VL: B2 VL with S12T, I21M
notes: expressed from pANTVhG1 and pANTVk vectors (IgG1, kappa) in HEK293 cells; also called AT-VH4/AT-Vk1
B14: deimmunized humanized antibody huAbF46 including a combination of AT-VH4 and AT-Vk2 (antibody, IgG1, V domains shown)
VH: B1 VH with K3Q, A44G, Q78K, S79N, I80T, D86N, T87S, S93T, A117S
VL: B2 VL
notes: expressed from pANTVhG1 and pANTVk vectors (IgG1, kappa) in HEK293 cells; also called AT-VH4/AT-Vk2
B15: deimmunized humanized antibody huAbF46 including a combination of AT-VH4 and AT-Vk3 (antibody, IgG1, V domains shown)
VH: B1 VH with K3Q, A44G, Q78K, S79N, I80T, D86N, T87S, S93T, A117S
VL: B2 VL with L3Q
notes: expressed from pANTVhG1 and pANTVk vectors (IgG1, kappa) in HEK293 cells; also called AT-VH4/AT-Vk3
B16: deimmunized humanized antibody huAbF46 including a combination of AT-VH4 and AT-Vk4 (antibody, IgG1, V domains shown)
VH: B1 VH with K3Q, A44G, Q78K, S79N, I80T, D86N, T87S, S93T, A117S
VL: B2 VL with L3Q, I69S
notes: expressed from pANTVhG1 and pANTVk vectors (IgG1, kappa) in HEK293 cells; also called AT-VH4/AT-Vk4
B17: deimmunized humanized antibody huAbF46 including a combination of AT-VH5 and AT-Vk1 (antibody, IgG1, V domains shown)
VH: B1 VH with K3Q, A44G, Q78K, S79N, I80T, D86N, T87S, S93T, T95V, A117S
VL: B2 VL with S12T, I21M
notes: expressed from pANTVhG1 and pANTVk vectors (IgG1, kappa) in HEK293 cells; also called AT-VH5/AT-Vk1
B18: deimmunized humanized antibody huAbF46 including a combination of AT-VH5 and AT-Vk3 (antibody, IgG1, V domains shown)
VH: B1 VH with K3Q, A44G, Q78K, S79N, I80T, D86N, T87S, S93T, T95V, A117S
VL: B2 VL with L3Q
notes: expressed from pANTVhG1 and pANTVk vectors (IgG1, kappa) in HEK293 cells; also called AT-VH5/AT-Vk3
B19: deimmunized humanized antibody huAbF46 including a combination of AT-VH5 and AT-Vk4 (antibody, IgG1, V domains shown)
VH: B1 VH with K3Q, A44G, Q78K, S79N, I80T, D86N, T87S, S93T, T95V, A117S
VL: B2 VL with L3Q, I69S
notes: expressed from pANTVhG1 and pANTVk vectors (IgG1, kappa) in HEK293 cells; also called AT-VH5/AT-Vk4
B20: deimmunized humanized antibody huAbF46 including a combination of AT-VH2 and AT-Vk2 (antibody, IgG1, V domains shown)
VH: B1 VH with A44G, Q78K, I80T, D86N, T87S, S93T, A117S
VL: B2 VL
notes: expressed from pANTVhG1 and pANTVk vectors (IgG1, kappa) in HEK293 cells; also called AT-VH2/AT-Vk2
B21: deimmunized humanized antibody huAbF46 including a combination of AT-VH5 and AT-Vk2 (antibody, IgG1, V domains shown)
VH: B1 VH with K3Q, A44G, Q78K, S79N, I80T, D86N, T87S, S93T, T95V, A117S
VL: B2 VL
notes: expressed from pANTVhG1 and pANTVk vectors (IgG1, kappa) in HEK293 cells; also called AT-VH5/AT-Vk2

target: T1, human c-Met protein antigen (human, UniProt P08581 25-932, limits assumed); assay: Biacore SPR, antibody immobilized on CM5 chip, human c-Met protein injected
T1 construct: also called c-Met antigen
T1 sequence (P08581 25-932 limits assumed): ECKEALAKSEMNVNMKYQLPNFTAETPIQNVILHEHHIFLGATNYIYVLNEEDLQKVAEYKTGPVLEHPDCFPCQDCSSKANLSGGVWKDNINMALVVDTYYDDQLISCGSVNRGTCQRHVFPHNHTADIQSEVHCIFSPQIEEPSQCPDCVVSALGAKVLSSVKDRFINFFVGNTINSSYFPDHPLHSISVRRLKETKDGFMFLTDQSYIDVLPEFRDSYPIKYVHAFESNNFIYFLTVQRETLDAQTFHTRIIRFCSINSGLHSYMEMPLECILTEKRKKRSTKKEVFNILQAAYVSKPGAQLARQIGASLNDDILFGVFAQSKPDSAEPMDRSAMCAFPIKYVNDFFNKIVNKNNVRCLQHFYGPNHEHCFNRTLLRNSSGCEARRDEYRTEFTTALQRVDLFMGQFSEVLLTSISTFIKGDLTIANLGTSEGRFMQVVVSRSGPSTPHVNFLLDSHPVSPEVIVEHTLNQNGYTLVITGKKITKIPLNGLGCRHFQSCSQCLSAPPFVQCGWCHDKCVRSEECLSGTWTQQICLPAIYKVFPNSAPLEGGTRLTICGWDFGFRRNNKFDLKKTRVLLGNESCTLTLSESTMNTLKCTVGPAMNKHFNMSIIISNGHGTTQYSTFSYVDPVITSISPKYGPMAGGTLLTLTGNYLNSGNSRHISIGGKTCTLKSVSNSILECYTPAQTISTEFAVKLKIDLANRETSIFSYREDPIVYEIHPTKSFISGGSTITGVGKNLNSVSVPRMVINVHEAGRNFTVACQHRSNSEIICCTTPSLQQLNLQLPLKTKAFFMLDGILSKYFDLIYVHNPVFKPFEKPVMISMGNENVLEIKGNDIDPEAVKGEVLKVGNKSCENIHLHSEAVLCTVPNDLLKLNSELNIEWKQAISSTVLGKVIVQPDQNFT

Q: For B1, which Kd is on record?
A: 4.27 nM

target: T2, human c-Met/Fc fusion protein (R&D Systems) (human, UniProt P08581 25-932); assay: competition ELISA on coated c-Met/Fc; competitor biotinylated chAbF46 (0.1 ug/ml)
T2 construct: Bought reagent; also called c-Met/Fc chimera (R&D Systems Cat. No. 358-MT/CF); not shown: Fc part of the bought fusion
Method: The antigens were coated by overnight incubation at a temperature of 4° C. using Nunc Immuno MaxiSort 96 well flat bottom microtiter plate (Fisher Cat. No. DIS-971-030J) and 1.0 μg/ml and 100 μl/well of c-Met/Fc chimera (R&D Systems Cat. No. 358-MT/CF). chAbF46 and 20 humanized antibodies were diluted and at a concentration of 10 μg/ml to 0.078 μg/ml, they were mixed with biotinylated chAbF46 (0.1 μg/ml, final conc.), followed by incubation at a temperature of 37° C. for 2 hours. The amount of biotinylated chAbF46 antibody binding to the antigen was measured using streptavidin-HRP (Sigma cat. No S5512) and an OPD substrate (Sigma Cat. No. P9187), and IC50 data were calculated from the results and the data are shown in Table 1 below (all units in nM).

T2 sequence (P08581 25-932 limits assumed): as above

Q: For B2, which IC50 is on record?
A: 4.5 nM

Q: With B3 as the binder, how does the IC50 read?
A: 1.48 nM

Q: With B4 as the binder, how does the IC50 read?
A: 1.49 nM

Q: For B5, which IC50 is on record?
A: 2.3 nM

Q: With B6 as the binder, how does the IC50 read?
A: 1.51 nM

Q: Which IC50 does the source give for B7 here?
A: 2.3 nM

Q: For B8, which IC50 is on record?
A: 1.69 nM

Q: Which IC50 does the source give for B9 here?
A: 1.37 nM

Q: With B10 as the binder, how does the IC50 read?
A: 3.53 nM

Q: For B11, which IC50 is on record?
A: 5.51 nM

Q: With B12 as the binder, how does the IC50 read?
A: 1.81 nM

Q: With B13 as the binder, how does the IC50 read?
A: 2.4 nM

Q: For B14, which IC50 is on record?
A: 3.13 nM

Q: For B15, which IC50 is on record?
A: 1.99 nM

Q: Which IC50 does the source give for B16 here?
A: 1.41 nM

Q: Which IC50 does the source give for B17 here?
A: 2.04 nM

Q: Which IC50 does the source give for B18 here?
A: 1.57 nM

Q: For B19, which IC50 is on record?
A: 1.62 nM

Q: How did the IC50 turn out when B20 was run?
A: 1.28 nM

Q: B21 was tested. Which IC50 did it give?
A: 1.46 nM
